Experimental findings from PMC11078757, “Ligand efficacy modulates conformational dynamics of the µ-opioid receptor” (Nature, 2024) are described below.

The assay concerns the target T1, Gi1 heterotrimer (human Gαi1, Gβ1, Gγ2) (human, UniProt P63096 1-354; P62873 1-340; P59768 1-71).
T1 construct: Gαi1, human; Gβ1, human; Gγ2, cloned together with human Gβ1 in pFastBac Dual; Treated with λ protein phosphatase; Purified with 10 µM GDP; made nucleotide-free in the assay with apyrase where said; Residues of the 3C site may be left on Gβ1 after cleavage; also called G protein; source: Hi5 cells, baculovirus co-infection, purified (Ni-NTA, MonoQ; also SEC for DEER samples); not shown: His6, …
Kind of assay: single-molecule FRET within the labelled receptor (TIRFM); 20 nM µOR–Cy3/Cy5 with 100 µM ligand incubated with 20 µM Gi1, then apyrase (nucleotide-free); complex immobilised via Flag tag, biotinylated M1 Fab and streptavidin; 25 °C, LMNG/CHS micelles, 100 ms frames. The note with it: both partners purified.

B1: µOR∆7(R182C/R273C) labelled with iodoacetamide-conjugated Cy3 and Cy5 (receptor)
chain: GPGNISDSSDPLAPASSSPAPGSWLNLSHVDGNQSDPSGPNRTGLGGSHSLSPQTGSPSMVTAITIMALYSIVCVVGLFGNFLVMYVIVRYTKMKTATNIYIFNLALADALATSTLPFQSVNYLMGTWPFGNILCKIVISIDYYNMFTSIFTLCTMSVDRYIAVTHPVKALDFRTPCNAKIVNVCNWILSSAIGLPVMFMATTKYRQGSIDCTLTFSHPTWYWENLLKICVFIFAFIMPVLIITVCYGLMILRLKSVRMLSGSKEKDCNLRRITRMVLVVVAVFIVCWTPIHIYVIIKALITIPETTFQTVSWHFCIALGYTNSCLNPVLYAFLDENFKRAFREFLIPTSSTIEQQNSARIRQNTREHPSTANTVDRTNHQLENLEAETAPLP
modifications: iodoacetamide-conjugated Cy3 and Cy5 on the introduced cysteines 182 and 273
notes: µ-opioid receptor, Mus musculus, residues 6-398, minimal-cysteine construct µOR∆7 with two introduced labelling cysteines; Tethered to the cover slip via its Flag tag, biotinylated M1 Fab and streptavidin; also called µOR–Cy3/Cy5; source: Sf9 insect cells, baculovirus, purified (Ni-NTA, anti-Flag M1 resin, SEC) in LMNG/CHS micelles; not shown: Flag, N-terminal, kept
For the molecule B1, the binding result is reported as “binds”.
